In PMC9442473, “Centriole growth is limited by the Cdk/Cyclin-dependent phosphorylation of Ana2/STIL” (The Journal of Cell Biology, 2022):

Molecular target: the molecule itself
Assay: fluorescence correlation spectroscopy (FCS), photon-count rate per molecule (CPM); point FCS in the cytoplasm of living syncytial embryos at the beginning of nuclear cycle 12, 25.0-26.0°C; CPM compared with monomeric (mNG) and dimeric (dNG) NeonGreen controls

Protein | stoichiometry N
Ana2-mNG (natural protein, Drosophila melanogaster, UniProt Q9XZ31 1-420, looked up, Ana2 (fly homologue of STIL), Drosophila melanogaster; mNG with a short linker knocked in at the C-terminus of the endogenous locus; The protein appeared overexpressed about 2-4X against the untagged one; also called Ana2/STIL; WT Ana2-mNG; source: CRISPR/Cas9 knock-in at the endogenous locus, in the cytoplasm of living Drosophila syncytial embryos; not shown: mNeonGreen (mNG), C-terminal, kept) MFVPETEDMLPRLAPRPSAAVPMGHTNEIIGPTVPEVSILFGQPPQDPQMQPQQPNHAHQESSPRAAPTFASWKKQMLPRVNFSPILATELGPRTAPSSNSPCSSKEYQVMPRDRNYASDAQQTTNHMNCNAGGYNAEPKQQAYQSRRLSSSSNADVLTICAGTQTDPFNPSPPRKSLPQVVYSDIDVSNLANKSDLAALVSLVESVRHEQQQLRNLCEMILEQQQRAKPEAISKASSTTGTQCDILTTNQAGRRLSPIMQDYIAEEEEPLPPPQARVIPQFPSPRPHPPIAQSTGYRANTPQAKRIPQLAKPNTEKSMVMNELALKYLRQPVDELMKDMRLGASPKSPNPEPLRPIDNIGHAQSPNDISNASYKYLKKYRLLPEEQLEPVCPQSPMAATAPSPHIQLDLENIRNQPKLL | ~2
mNG-Ana2 (natural protein, Drosophila melanogaster, UniProt Q9XZ31 1-420, looked up, Ana2 (fly homologue of STIL), Drosophila melanogaster; mNG with a short linker knocked in at the N-terminus of the endogenous locus; also called Ana2/STIL; source: CRISPR/Cas9 knock-in at the endogenous locus, in the cytoplasm of living Drosophila syncytial embryos; not shown: mNeonGreen (mNG), N-terminal, kept) MFVPETEDMLPRLAPRPSAAVPMGHTNEIIGPTVPEVSILFGQPPQDPQMQPQQPNHAHQESSPRAAPTFASWKKQMLPRVNFSPILATELGPRTAPSSNSPCSSKEYQVMPRDRNYASDAQQTTNHMNCNAGGYNAEPKQQAYQSRRLSSSSNADVLTICAGTQTDPFNPSPPRKSLPQVVYSDIDVSNLANKSDLAALVSLVESVRHEQQQLRNLCEMILEQQQRAKPEAISKASSTTGTQCDILTTNQAGRRLSPIMQDYIAEEEEPLPPPQARVIPQFPSPRPHPPIAQSTGYRANTPQAKRIPQLAKPNTEKSMVMNELALKYLRQPVDELMKDMRLGASPKSPNPEPLRPIDNIGHAQSPNDISNASYKYLKKYRLLPEEQLEPVCPQSPMAATAPSPHIQLDLENIRNQPKLL | ~2
